Measurements reported in PMC7948471, “RSU-1 interaction with prohibitin-2 links cell–extracellular matrix detachment to downregulation of ERK signaling” (The Journal of Biological Chemistry, 2020).

Target: T1, GST-tagged RSU1 (full length) (human, UniProt Q15404 1-277)
T1 construct: Ras suppressor 1 (RSU1), human; the ORF inserted into pGEX-5x-1; In solution in the MBP-PHB2 pull-down; as bait in the pull-down of venus-PHB2; also called GST-RSU1; source: E. coli, purified (glutathione-Sepharose 4B)
T1 sequence (looked up): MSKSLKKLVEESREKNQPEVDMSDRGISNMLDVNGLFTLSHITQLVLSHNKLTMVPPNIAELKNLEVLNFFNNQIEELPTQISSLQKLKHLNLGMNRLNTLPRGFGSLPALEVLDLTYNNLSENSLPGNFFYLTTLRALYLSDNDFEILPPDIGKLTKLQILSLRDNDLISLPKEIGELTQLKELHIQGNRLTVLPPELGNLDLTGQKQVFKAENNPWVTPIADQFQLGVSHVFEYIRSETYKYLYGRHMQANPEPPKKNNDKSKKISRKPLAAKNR
Test: pull-down; GST-RSU1 (10 μg/ml) with amylose beads holding MBP-tagged full-length or deletion forms of PHB2 or MBP; 1% Triton X-100, 10 mM Tris, 100 mM NaH2PO4, pH 8.0; 4 °C, 3 h; Western blot with anti-RSU1
Settings: both partners purified

Row | Binder | binding result
1 | MBP-tagged PHB2 middle region (amino acids 150–206) (domain or fragment, human, UniProt Q99623 150-206, looked up, source: E. coli, purified (amylose-agarose beads)) ASQLITQRAQVSLLIRRELTERAKDFSLILDDVAITELSFSREYTAAVEAKQVAQQE | binds
2 | MBP-tagged PHB2 mutant in which amino acids 150 to 206 are deleted (Δ150–206) (natural protein, human, UniProt Q99623 1-299, looked up, source: E. coli, purified (amylose-agarose beads)) MAQNLKDLAGRLPAGPRGMGTALKLLLGAGAVAYGVRESVFTVEGGHRAIFFNRIGGVQQDTILAEGLHFRIPWFQYPIIYDIRARPRKISSPTGSKDLQMVNISLRVLSRPNAQELPSMYQRLGLDYEERVLPSIVNEVLKSVVAKFNAQRAQFLVEKAKQEQRQKIVQAEGEAEAAKMLGEALSKNPGYIKLRKIRAAQNISKTIATSQNRIYLTADNLVLNLQDESFTRGSDSLIKGKK | binds
